Measurements reported in paper PMC9482650, “Quantitative fragmentomics allow affinity mapping of interactomes” (Nature Communications, 2022).

T1: FRMPD1, Q5SYB0
T1 sequence (Q5SYB0 52-145, limits assumed, looked up): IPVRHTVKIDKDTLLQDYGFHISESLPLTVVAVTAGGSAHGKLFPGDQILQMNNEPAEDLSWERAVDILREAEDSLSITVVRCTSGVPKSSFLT

T2: PDZD7_3, Q9H5P4
T2 sequence (Q9H5P4 857-944, limits assumed, looked up): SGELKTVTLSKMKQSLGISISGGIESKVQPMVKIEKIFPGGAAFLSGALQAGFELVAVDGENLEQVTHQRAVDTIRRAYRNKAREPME

T3: SYNJ2BP, P57105
T3 sequence (P57105 8-110, limits assumed, looked up): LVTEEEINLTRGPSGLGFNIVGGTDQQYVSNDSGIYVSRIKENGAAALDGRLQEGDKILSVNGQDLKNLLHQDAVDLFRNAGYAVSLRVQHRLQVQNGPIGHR

T4: APBA1_2, Q02410
T4 sequence (Q02410 742-832, limits assumed, looked up): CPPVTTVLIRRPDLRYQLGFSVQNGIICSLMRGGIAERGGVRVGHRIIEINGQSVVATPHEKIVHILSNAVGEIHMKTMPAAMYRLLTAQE

T5: MPDZ_10, O75970
T5 sequence (O75970 1624-1722, limits assumed, looked up): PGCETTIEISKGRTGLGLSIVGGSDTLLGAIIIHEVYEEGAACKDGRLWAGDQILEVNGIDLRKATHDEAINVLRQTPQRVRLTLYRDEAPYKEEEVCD

T6: ARHGAP21, Q5T5U3
T6 sequence (Q5T5U3 45-169, limits assumed, looked up): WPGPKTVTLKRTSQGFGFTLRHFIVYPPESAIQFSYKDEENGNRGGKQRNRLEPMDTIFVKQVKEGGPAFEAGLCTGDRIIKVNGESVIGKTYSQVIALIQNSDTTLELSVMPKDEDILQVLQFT

T7: APBA3_1, O96018
T7 sequence (O96018 389-490, limits assumed, looked up): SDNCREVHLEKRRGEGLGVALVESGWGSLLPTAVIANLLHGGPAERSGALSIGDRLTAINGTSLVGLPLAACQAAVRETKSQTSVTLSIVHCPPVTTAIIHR

T8: NHERF3_4, Q5T2W1
T8 sequence (Q5T2W1 373-468, limits assumed, looked up): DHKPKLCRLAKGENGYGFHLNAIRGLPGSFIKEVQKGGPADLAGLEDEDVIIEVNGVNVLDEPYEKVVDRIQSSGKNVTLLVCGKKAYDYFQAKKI

T9: SIPA1L2, Q9P2F8
T9 sequence (Q9P2F8 945-1036, limits assumed, looked up): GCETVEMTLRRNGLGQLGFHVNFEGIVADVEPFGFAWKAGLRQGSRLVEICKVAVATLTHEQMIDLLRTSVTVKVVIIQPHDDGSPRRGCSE

T10: LIN7B, Q9HAP6
T10 sequence (Q9HAP6 88-185, limits assumed, looked up): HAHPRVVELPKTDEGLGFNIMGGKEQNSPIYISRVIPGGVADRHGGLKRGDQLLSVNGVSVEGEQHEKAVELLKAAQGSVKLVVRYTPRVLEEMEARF

T11: PTPN13_1, Q12923
T11 sequence (Q12923 1088-1188, limits assumed, looked up): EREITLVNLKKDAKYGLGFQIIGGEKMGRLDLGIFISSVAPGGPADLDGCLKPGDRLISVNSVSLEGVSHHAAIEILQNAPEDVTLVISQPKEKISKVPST

T12: HTRA4, P83105
T12 sequence (P83105 378-476, limits assumed, looked up): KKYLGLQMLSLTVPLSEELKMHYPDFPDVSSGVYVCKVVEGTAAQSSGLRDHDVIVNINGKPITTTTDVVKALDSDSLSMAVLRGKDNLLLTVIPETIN

T13: APBA2_2, Q99767
T13 sequence (Q99767 654-744, limits assumed, looked up): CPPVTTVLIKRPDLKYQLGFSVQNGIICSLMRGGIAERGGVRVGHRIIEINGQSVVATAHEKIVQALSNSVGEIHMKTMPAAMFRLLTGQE


Key:
Experiment in all cases: holdup assay
Set-up in all cases: key: below the threshold = too weak to quantify, mostly under pKd 3.1 to 4
Conditions in all cases: plain residues with an end cap or a label only (N-terminal biotin on a linker: ado-ado)
DLG1_1, Q12959 = molecular target: DLG1_1, Q12959
FRMPD1, Q5SYB0 = molecular target: T1, FRMPD1, Q5SYB0
MAGI2_4, Q86UL8 = molecular target: MAGI2_4, Q86UL8
MAGI2_4, Q86UL8, sequence (Q86UL8 772-865): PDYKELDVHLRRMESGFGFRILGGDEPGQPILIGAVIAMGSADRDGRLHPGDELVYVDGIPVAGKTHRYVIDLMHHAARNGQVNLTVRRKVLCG

PDZD7_3, Q9H5P4 = molecular target: T2, PDZD7_3, Q9H5P4
PDLIM1, O00151 = molecular target: PDLIM1, O00151
PDLIM1, O00151, sequence (O00151 1-87): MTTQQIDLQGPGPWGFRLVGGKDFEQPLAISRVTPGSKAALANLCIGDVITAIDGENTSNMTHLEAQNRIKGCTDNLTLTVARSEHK

TJP2_1, Q9UDY2 = molecular target: TJP2_1, Q9UDY2
TJP2_1, Q9UDY2, sequence (Q9UDY2 24-128): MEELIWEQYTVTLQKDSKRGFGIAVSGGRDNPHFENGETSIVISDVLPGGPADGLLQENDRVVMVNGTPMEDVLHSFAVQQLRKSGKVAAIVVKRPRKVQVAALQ

MAST2, Q6P0Q8 = molecular target: MAST2, Q6P0Q8
MAST2, Q6P0Q8, sequence (Q6P0Q8 1099-1202): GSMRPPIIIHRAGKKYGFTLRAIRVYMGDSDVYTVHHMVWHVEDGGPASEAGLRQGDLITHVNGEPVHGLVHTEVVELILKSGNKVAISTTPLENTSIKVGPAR

MAGI3_2, Q5TCQ9 = molecular target: MAGI3_2, Q5TCQ9
MAGI3_2, Q5TCQ9, sequence (Q5TCQ9 398-503): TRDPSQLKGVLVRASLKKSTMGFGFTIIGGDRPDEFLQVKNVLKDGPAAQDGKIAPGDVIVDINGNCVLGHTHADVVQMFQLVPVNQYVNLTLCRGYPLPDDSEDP

SYNJ2BP, P57105 = molecular target: T3, SYNJ2BP, P57105
APBA1_2, Q02410 = molecular target: T4, APBA1_2, Q02410
GRIP2_7, Q9C0E4 = molecular target: GRIP2_7, Q9C0E4
GRIP2_7, Q9C0E4, sequence (Q9C0E4 934-1023): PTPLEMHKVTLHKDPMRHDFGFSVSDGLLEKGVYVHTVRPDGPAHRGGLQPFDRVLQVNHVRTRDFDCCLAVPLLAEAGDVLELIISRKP

MPDZ_10, O75970 = molecular target: T5, MPDZ_10, O75970
ARHGAP21, Q5T5U3 = molecular target: T6, ARHGAP21, Q5T5U3
APBA3_1, O96018 = molecular target: T7, APBA3_1, O96018
Inadl_2, Q8NI35 = molecular target: Inadl_2, Q8NI35
Inadl_2, Q8NI35, sequence (Q8NI35 238-335): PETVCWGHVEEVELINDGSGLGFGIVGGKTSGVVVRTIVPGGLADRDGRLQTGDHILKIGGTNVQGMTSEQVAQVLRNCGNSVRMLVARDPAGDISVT

NHERF3_4, Q5T2W1 = molecular target: T8, NHERF3_4, Q5T2W1
GRIP2_3, Q9C0E4 = molecular target: GRIP2_3, Q9C0E4
GRIP2_3, Q9C0E4, sequence (Q9C0E4 238-339): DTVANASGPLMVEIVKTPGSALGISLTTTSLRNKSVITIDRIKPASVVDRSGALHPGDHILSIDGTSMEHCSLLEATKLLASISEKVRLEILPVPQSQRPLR

SNX27, Q96L92 = molecular target: SNX27, Q96L92
SIPA1L2, Q9P2F8 = molecular target: T9, SIPA1L2, Q9P2F8
LIN7B, Q9HAP6 = molecular target: T10, LIN7B, Q9HAP6
PTPN13_1, Q12923 = molecular target: T11, PTPN13_1, Q12923
HTRA4, P83105 = molecular target: T12, HTRA4, P83105
GIPC2, Q8TF65 = molecular target: GIPC2, Q8TF65
GIPC2, Q8TF65, sequence (Q8TF65 112-203): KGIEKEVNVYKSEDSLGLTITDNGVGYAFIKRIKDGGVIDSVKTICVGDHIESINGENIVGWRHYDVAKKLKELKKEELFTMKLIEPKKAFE

GRASP, Q7Z6J2 = molecular target: GRASP, Q7Z6J2
GRASP, Q7Z6J2, sequence (Q7Z6J2 96-193): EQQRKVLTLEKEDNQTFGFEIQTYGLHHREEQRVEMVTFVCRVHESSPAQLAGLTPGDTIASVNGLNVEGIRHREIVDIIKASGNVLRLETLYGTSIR

APBA2_2, Q99767 = molecular target: T13, APBA2_2, Q99767

Binder	pKd (DLG1_1, Q12959)	pKd (FRMPD1, Q5SYB0)	pKd (MAGI2_4, Q86UL8)	pKd (PDZD7_3, Q9H5P4)	pKd (PDLIM1, O00151)	pKd (TJP2_1, Q9UDY2)	pKd (MAST2, Q6P0Q8)	pKd (MAGI3_2, Q5TCQ9)	pKd (SYNJ2BP, P57105)	pKd (APBA1_2, Q02410)	pKd (GRIP2_7, Q9C0E4)	pKd (MPDZ_10, O75970)	pKd (ARHGAP21, Q5T5U3)	pKd (APBA3_1, O96018)	pKd (Inadl_2, Q8NI35)	pKd (NHERF3_4, Q5T2W1)	pKd (GRIP2_3, Q9C0E4)	pKd (SNX27, Q96L92)	pKd (SIPA1L2, Q9P2F8)	pKd (LIN7B, Q9HAP6)	other results
RGKNRRQSIF [CDK18, Q07002]	below the threshold	below the threshold	below the threshold	below the threshold	below the threshold	3.47	4.34	below the threshold	below the threshold	3.47	below the threshold	3.48	below the threshold	below the threshold	below the threshold	below the threshold	below the threshold	below the threshold	below the threshold	4.03	pKd (PTPN13_1, Q12923): below the threshold; pKd (HTRA4, P83105): below the threshold; pKd (GIPC2, Q8TF65): below the threshold; pKd (GRASP, Q7Z6J2): 3.81; pKd (APBA2_2, Q99767): 3.5
AKADAQESRL [PLCB2, Q00722]	below the threshold	below the threshold	below the threshold	4.29	below the threshold	below the threshold	5.82	below the threshold	3.97	below the threshold	below the threshold	below the threshold	below the threshold	below the threshold	below the threshold	below the threshold	below the threshold	5.21	below the threshold	below the threshold	pKd (PTPN13_1, Q12923): below the threshold; pKd (HTRA4, P83105): 3.85; pKd (GIPC2, Q8TF65): below the threshold; pKd (GRASP, Q7Z6J2): below the threshold; pKd (APBA2_2, Q99767): below the threshold
VISSDDLTEL [CAPN6, Q9Y6Q1]	below the threshold	below the threshold	below the threshold	3.87	below the threshold	below the threshold	5.67	below the threshold	below the threshold	3.79	below the threshold	below the threshold	below the threshold	below the threshold	below the threshold	below the threshold	below the threshold	4.17	below the threshold	3.56	pKd (PTPN13_1, Q12923): below the threshold; pKd (HTRA4, P83105): 3.92; pKd (GIPC2, Q8TF65): below the threshold; pKd (GRASP, Q7Z6J2): 4.21; pKd (APBA2_2, Q99767): below the threshold
TFSRRPKTRV [CD226, Q15762]	below the threshold	below the threshold	below the threshold	4.5	below the threshold	4.25	4.1	5.24	below the threshold	3.48	below the threshold	4.03	4.06	below the threshold	below the threshold	below the threshold	below the threshold	3.88	below the threshold	below the threshold	pKd (PTPN13_1, Q12923): below the threshold; pKd (HTRA4, P83105): 4.01; pKd (GIPC2, Q8TF65): below the threshold; pKd (GRASP, Q7Z6J2): 3.98; pKd (APBA2_2, Q99767): below the threshold

Further lines, with some results ahead:

pKd (DLG1_1, Q12959)	pKd (FRMPD1, Q5SYB0)	pKd (MAGI2_4, Q86UL8)	pKd (PDZD7_3, Q9H5P4)	pKd (PDLIM1, O00151)	pKd (TJP2_1, Q9UDY2)	pKd (MAST2, Q6P0Q8)	pKd (MAGI3_2, Q5TCQ9)	pKd (SYNJ2BP, P57105)	pKd (APBA1_2, Q02410)	pKd (GRIP2_7, Q9C0E4)	pKd (MPDZ_10, O75970)	pKd (ARHGAP21, Q5T5U3)	pKd (APBA3_1, O96018)	pKd (Inadl_2, Q8NI35)	pKd (NHERF3_4, Q5T2W1)	pKd (GRIP2_3, Q9C0E4)	pKd (SNX27, Q96L92)	pKd (SIPA1L2, Q9P2F8)	pKd (LIN7B, Q9HAP6)	Binder	other results
5.07	below the threshold	below the threshold	4.53	below the threshold	4.6	5.03	5.32	4.32	3.62	3.66	3.92	4.01	below the threshold	below the threshold	3.55	below the threshold	4.31	below the threshold	below the threshold	THHRKIHTRV [ZNF599, Q96NL3]	pKd (PTPN13_1, Q12923): below the threshold; pKd (HTRA4, P83105): below the threshold; pKd (GIPC2, Q8TF65): 3.56; pKd (GRASP, Q7Z6J2): 3.76; pKd (APBA2_2, Q99767): 3.49
below the threshold	below the threshold	3.85	5.12	4.13	5.59	5.65	3.89	4.52	4.89	4.21	below the threshold	4.88	3.5	3.92	4.15	below the threshold	5.02	below the threshold	below the threshold	NKSEPFLTWL [WWTR1, Q9GZV5]	pKd (PTPN13_1, Q12923): 3.66; pKd (HTRA4, P83105): 4.6; pKd (GIPC2, Q8TF65): below the threshold; pKd (GRASP, Q7Z6J2): 5.28; pKd (APBA2_2, Q99767): below the threshold
